Source: IntAct's records for PubMed 17572682

B1: Protein CBFA2T1 (Homo sapiens), Q06455 (parent)
chain: MISVKRNTWRALSLVIGDCRKKGNFEYCQDRTEKHSTMPDSPVDVKTQSRLTPPTMPPPPTTQGAPRTSSFTPTTLTNGTSHSPTALNGAPSPPNGFSNGPSSSSSSSLANQQLPPACGARQLSKLKRFLTTLQQFGNDISPEIGERVRTLVLGLVNSTLTIEEFHSKLQEATNFPLRPFVIPFLKANLPLLQRELLHCARLAKQNPAQYLAQHEQLLLDASTTSPVDSSELLLDVNENGKRRTPDRTKENGFDREPLHSEHPSKRPCTISPGQRYSPNNGLSYQPNGLPHPTPPPPQHYRLDDMAIAHHYRDSYRHPSHRDLRDRNRPMGLHGTRQEEMIDHRLTDREWAEEWKHLDHLLNCIMDMVEKTRRSLTVLRRCQEADREELNYWIRRYSDAEDLKKGGGSSSSHSRQQSPVNPDPVALDAHREFLHRPASGYVPEEIWKKAEEAVNEVKRQAMTELQKAVSEAERKAHDMITTERAKMERTVAEAKRQAAEDALAVINQQEDSSESCWNCGRKASETCSGCNTARYCGSFCQHKDWEKHHHICGQTLQAQQQGDTPAVSSSVTPNSGAGSPMDTPPAATPRSTTPGTPSTIETTPR

Variants of: B1
Settings: with ncor1_human NCOR1, O75376
Chain of ncor1_human NCOR1, O75376 (O75376 whole entry): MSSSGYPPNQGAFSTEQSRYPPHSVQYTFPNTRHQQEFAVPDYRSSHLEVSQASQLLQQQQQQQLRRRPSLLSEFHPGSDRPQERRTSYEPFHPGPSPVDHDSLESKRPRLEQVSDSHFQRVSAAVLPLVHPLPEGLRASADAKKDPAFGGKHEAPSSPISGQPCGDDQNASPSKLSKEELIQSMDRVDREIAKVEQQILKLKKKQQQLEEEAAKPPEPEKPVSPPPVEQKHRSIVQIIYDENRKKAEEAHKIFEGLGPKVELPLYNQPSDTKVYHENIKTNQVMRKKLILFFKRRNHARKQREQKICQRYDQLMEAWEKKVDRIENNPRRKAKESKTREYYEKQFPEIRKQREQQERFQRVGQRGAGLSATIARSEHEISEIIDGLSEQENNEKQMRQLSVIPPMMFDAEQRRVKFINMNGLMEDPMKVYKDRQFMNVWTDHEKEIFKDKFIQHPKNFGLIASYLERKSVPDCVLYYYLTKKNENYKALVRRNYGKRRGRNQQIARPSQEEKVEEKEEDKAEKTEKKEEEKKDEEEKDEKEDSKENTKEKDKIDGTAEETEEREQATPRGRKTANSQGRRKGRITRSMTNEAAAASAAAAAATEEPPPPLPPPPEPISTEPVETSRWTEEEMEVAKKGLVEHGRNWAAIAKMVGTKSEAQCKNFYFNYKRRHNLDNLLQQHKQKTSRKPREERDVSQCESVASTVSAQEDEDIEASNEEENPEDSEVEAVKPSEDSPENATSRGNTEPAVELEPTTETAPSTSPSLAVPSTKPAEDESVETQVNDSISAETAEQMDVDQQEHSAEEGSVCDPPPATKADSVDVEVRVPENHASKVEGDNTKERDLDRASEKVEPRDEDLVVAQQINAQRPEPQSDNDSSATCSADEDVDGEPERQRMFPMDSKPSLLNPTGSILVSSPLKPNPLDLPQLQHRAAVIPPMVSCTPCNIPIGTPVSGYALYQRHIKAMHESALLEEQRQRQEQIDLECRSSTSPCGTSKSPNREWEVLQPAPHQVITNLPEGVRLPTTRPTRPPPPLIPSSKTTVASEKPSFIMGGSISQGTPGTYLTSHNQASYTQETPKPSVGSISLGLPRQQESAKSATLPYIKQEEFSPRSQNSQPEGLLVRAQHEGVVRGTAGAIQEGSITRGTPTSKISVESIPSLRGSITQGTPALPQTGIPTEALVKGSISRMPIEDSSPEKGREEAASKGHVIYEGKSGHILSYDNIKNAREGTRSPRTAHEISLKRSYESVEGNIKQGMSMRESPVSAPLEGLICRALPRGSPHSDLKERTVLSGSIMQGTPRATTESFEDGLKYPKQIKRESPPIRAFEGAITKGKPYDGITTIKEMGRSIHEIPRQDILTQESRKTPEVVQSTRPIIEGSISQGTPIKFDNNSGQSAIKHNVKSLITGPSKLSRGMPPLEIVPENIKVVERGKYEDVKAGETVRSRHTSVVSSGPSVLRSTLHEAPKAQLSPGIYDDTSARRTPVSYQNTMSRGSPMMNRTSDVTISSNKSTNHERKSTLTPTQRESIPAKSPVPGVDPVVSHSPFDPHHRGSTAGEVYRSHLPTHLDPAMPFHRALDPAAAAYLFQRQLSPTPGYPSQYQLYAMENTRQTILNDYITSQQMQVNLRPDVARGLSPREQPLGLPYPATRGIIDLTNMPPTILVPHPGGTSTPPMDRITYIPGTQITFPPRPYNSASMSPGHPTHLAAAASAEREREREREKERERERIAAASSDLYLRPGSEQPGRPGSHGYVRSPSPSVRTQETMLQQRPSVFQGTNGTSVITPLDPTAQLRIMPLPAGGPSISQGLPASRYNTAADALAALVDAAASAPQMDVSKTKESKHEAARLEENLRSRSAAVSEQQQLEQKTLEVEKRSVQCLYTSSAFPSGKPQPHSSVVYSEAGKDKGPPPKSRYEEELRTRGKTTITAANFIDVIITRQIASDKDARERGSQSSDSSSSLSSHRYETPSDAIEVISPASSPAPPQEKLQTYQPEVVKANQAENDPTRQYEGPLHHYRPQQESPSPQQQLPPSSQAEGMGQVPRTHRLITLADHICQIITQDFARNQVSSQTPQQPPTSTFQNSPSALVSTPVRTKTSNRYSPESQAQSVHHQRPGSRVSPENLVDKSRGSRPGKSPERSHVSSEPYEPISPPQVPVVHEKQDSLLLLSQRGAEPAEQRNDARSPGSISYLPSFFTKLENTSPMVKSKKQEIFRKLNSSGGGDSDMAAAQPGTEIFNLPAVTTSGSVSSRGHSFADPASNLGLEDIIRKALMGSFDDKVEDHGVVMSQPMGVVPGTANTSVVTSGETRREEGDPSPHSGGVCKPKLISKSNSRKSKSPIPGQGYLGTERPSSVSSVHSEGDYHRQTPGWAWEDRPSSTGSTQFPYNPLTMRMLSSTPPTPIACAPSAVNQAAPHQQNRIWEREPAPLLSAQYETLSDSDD

Row | effect of a mutation on the interaction | Variant
1 | decreasing interaction | F175A
2 | decreasing interaction | F129K
3 | decreasing interaction | T173Q
4 | decreasing interaction | L177A
5 | decreasing interaction | Q170A
6 | decreasing interaction | F136A
